Reference: article PMC3103402

biological target: CBF-A (hnRNP A/B), p37 isoform (UniProt Q99020 1-285); assay: EMSA
Sequence (Q99020 whole entry, canonical isoform): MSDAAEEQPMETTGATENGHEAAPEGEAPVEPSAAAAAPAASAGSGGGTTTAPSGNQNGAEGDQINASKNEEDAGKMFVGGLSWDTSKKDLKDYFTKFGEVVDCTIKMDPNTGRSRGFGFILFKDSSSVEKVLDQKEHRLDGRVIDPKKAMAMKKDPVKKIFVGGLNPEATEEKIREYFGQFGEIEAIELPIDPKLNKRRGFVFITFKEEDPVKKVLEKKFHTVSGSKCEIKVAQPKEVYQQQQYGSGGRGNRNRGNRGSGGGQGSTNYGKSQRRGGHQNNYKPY

Binding result, binds:
AACGCCAGUGAGCCAGGAACU (ssRNA) [CaMKIIα wtRTS]
GCUGAGGAGGAGGAGAUCAUU (ssRNA) [Arc wtRTS]
AUGGACCCAAUGAGAACUAGU (ssRNA) [BDNF wtRTS]
